Changes are numbered by the printed parent chain.
Target: Recombinant Human TNF-α/TNFSF1A (human, UniProt P01375 77-233)
Assay: cell-based or functional assay

Sequence of Recombinant Human TNF-α/TNFSF1A (P01375 77-233 limits assumed): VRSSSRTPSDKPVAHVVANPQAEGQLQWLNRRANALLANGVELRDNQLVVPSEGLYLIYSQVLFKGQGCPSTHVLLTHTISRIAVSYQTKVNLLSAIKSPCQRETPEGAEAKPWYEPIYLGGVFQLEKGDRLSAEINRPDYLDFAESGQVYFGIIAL

B1: DVD3104 (bispecific antibody, IgG1)
VH: EVQLVQSGAEVKKPGASVKVSCKASGYTFANYGIIWVRQAPGQGLEWMGWINTYTGKPTYAQKFQGRVTMTTDTSTSTAYMELSSLRSEDTAVYYCARKLFTTMDVTDNAMDYWGQGTTVTVSSASTKGPEVQLVESGGGLVQPGGSLRLSCAASGFTFSNYGVTWVRQAPGKGLEWVSMIWADGSTHYASSVKGRFTISRDNSKNTLYLQMNSLRAEDTAVYYCAREWQHGPVAYWGQGTLVTVSS
VL: DIQMTQSPSSLSASVGDRVTITCRASQDISQYLNWYQQKPGKAPKLLIYYTSRLQSGVPSRFSGSGSGTDFTLTISSLQPEDFATYFCQQGNTWPPTFGQGTKLEIKRTVAAPDIQMTQSPSSLSASVGDRVTITCRASQLVSSAVAWYQQKPGKAPKLLIYWASARHTGVPSRFSGSGSGTDFTLTISSLQPEDFATYYCQQHYKTPFTFGQGTKLEIKR
- N-Terminal VD huTNFα Neutralization Assay IC50: 33 pM

B2: DVD3117 (bispecific antibody, IgG1)
VH: EVQLVQSGAEVKKPGASVKVSCKASGYTFNNYGIIWVRQAPGQGLEWMGWINTYTGKPTYAQKFQGRVTMTTDTSTSTAYMELSSLRSEDTAVYYCARKLFNTVAVTDNAMDYWGQGTTVTVSSASTKGPSVFPLAPEVQLVESGGGLVQPGGSLRLSCAASGFTFSNYGVTWVRQAPGKGLEWVSMIWADGSTHYASSVKGRFTISRDNSKNTLYLQMNSLRAEDTAVYYCAREWQHGPVAYWGQGTLVTVSS
VL: B1 VL with S30E, Q31N, W94Q
- N-Terminal VD huTNFα Neutralization Assay IC50: 1960 pM

B3: DVD3099 (bispecific antibody, IgG1)
VH: EVQLVQSGAEVKKPGASVKVSCKASGYTFTTYGVSWVRQAPGQGLEWMGEIYPGNYNTYYNEKFRGRVTMTTDTSTSTAYMELRSLRSDDTAVYYCARWRTSYFSDYGYFDYWGQGTTVTVSSASTKGPEVQLVESGGGLVQPGGSLRLSCAASGFTFSNYGVEWVRQAPGKGLEWVSGIWADGSTHYADTVKSRFTISRDNSKNTLYLQMNSLRAEDTAVYYCAREWQHGPVAYWGQGTLVTVSS
VL: DVVMTQSPLSLPVTLGQPASISCRSSQSLVHSHGNTYLHWYQQRPGQSPRLLIYTVSNRFSGVPDRFSGSGSGTDFTLKISRVEAEDVGVYYCSQSTHVPYTFGGGTKVEIKRTVAAPDIQMTQSPSSLSASVGDRVTITCKASQLVSSAVAWYQQKPGKAPKLLIYWASTLHTGVPSRFSGSGSGTDFTLTISSLQPEDFATYYCQQHYRTPFTFGQGTKLEIKR
- N-Terminal VD huTNFα Neutralization Assay IC50: 3 pM

B4: DVD3101 (bispecific antibody, IgG1)
VH: B3 VH
VL: DVVMTQSPLSLPVTLGQPASISCRSSQSLVHSHGNTYLHWYQQRPGQSPRLLIYTVSNRFSGVPDRFSGSGSGTDFTLKISRVEAEDVGVYYCSQSTHVPYTFGGGTKVEIKRTVAAPSVFIFPPDIQMTQSPSSLSASVGDRVTITCKASQLVSSAVAWYQQKPGKAPKLLIYWASTLHTGVPSRFSGSGSGTDFTLTISSLQPEDFATYYCQQHYRTPFTFGQGTKLEIKR
- C-Terminal VD huTNFα Neutralization Assay IC50: 308 pM

B5: DVD3102 (bispecific antibody, IgG1)
VH: EVQLVQSGAEVKKPGASVKVSCKASGYTFTTYGVSWVRQAPGQGLEWMGEIYPGNYNTYYNEKFRGRVTMTTDTSTSTAYMELRSLRSDDTAVYYCARWRTSYFSDYGYFDYWGQGTTVTVSSASTKGPSVFPLAPEVQLVESGGGLVQPGGSLRLSCAASGFTFSNYGVEWVRQAPGKGLEWVSGIWADGSTHYADTVKSRFTISRDNSKNTLYLQMNSLRAEDTAVYYCAREWQHGPVAYWGQGTLVTVSS
VL: B3 VL
- C-Terminal VD huTNFα Neutralization Assay IC50: 294 pM

B6: DVD3109 (bispecific antibody, IgG1)
VH: EVQLVQSGAEVKKPGASVKVSCKASGYTFTTYGVSWVRQAPGQGLEWMGEIYPGNYNTYYNEKFRGRVTMTTDTSTSTAYMELRSLRSDDTAVYYCARWRTSYFSDYGYFDYWGQGTTVTVSSASTKGPEVQLVQSGAEVKKPGASVKVSCKASGYTFANYGIIWVRQAPGQGLEWMGWINTYTGKPTYAQKFQGRVTMTTDTSTSTAYMELSSLRSEDTAVYYCARKLFTTMDVTDNAMDYWGQGTTVTVSS
VL: DVVMTQSPLSLPVTLGQPASISCRSSQSLVHSHGNTYLHWYQQRPGQSPRLLIYTVSNRFSGVPDRFSGSGSGTDFTLKISRVEAEDVGVYYCSQSTHVPYTFGGGTKVEIKRTVAAPDIQMTQSPSSLSASVGDRVTITCRASQDISQYLNWYQQKPGKAPKLLIYYTSRLQSGVPSRFSGSGSGTDFTLTISSLQPEDFATYFCQQGNTWPPTFGQGTKLEIKR
- C-Terminal VD huTNFα Neutralization Assay IC50: 731 pM

B7: DVD3119 (bispecific antibody, IgG1)
VH: B6 VH with A159N, T231N, M233V, D234A
VL: B6 VL with S148E, Q149N, W212Q
- C-Terminal VD huTNFα Neutralization Assay IC50: 163 pM

B8: DVD3121 (bispecific antibody, IgG1)
VH: B6 VH with A159N, T231N, M233V, D234A
VL: DVVMTQSPLSLPVTLGQPASISCRSSQSLVHSHGNTYLHWYQQRPGQSPRLLIYTVSNRFSGVPDRFSGSGSGTDFTLKISRVEAEDVGVYYCSQSTHVPYTFGGGTKVEIKRTVAAPSVFIFPPDIQMTQSPSSLSASVGDRVTITCRASQDIENYLNWYQQKPGKAPKLLIYYTSRLQSGVPSRFSGSGSGTDFTLTISSLQPEDFATYFCQQGNTQPPTFGQGTKLEIKR
- C-Terminal VD huTNFα Neutralization Assay IC50: 36 pM

B9: DVD3112 (bispecific antibody, IgG1)
VH: EVQLVQSGAEVKKPGASVKVSCKASGYTFTTYGVSWVRQAPGQGLEWMGEIYPGNYNTYYNEKFRGRVTMTTDTSTSTAYMELRSLRSDDTAVYYCARWRTSYFSDYGYFDYWGQGTTVTVSSASTKGPSVFPLAPEVQLVQSGAEVKKPGASVKVSCKASGYTFANYGIIWVRQAPGQGLEWMGWINTYTGKPTYAQKFQGRVTMTTDTSTSTAYMELSSLRSEDTAVYYCARKLFTTMDVTDNAMDYWGQGTTVTVSS
VL: B6 VL
- C-Terminal VD huTNFα Neutralization Assay IC50: 387 pM

B10: DVD3111 (bispecific antibody, IgG1)
VH: B6 VH
VL: B8 VL with E155S, N156Q, Q219W
- C-Terminal VD huTNFα Neutralization Assay IC50: 146 pM

B11: DVD3103 (bispecific antibody, IgG1)
VH: EVQLVQSGAEVKKPGASVKVSCKASGYTFANYGIIWVRQAPGQGLEWMGWINTYTGKPTYAQKFQGRVTMTTDTSTSTAYMELSSLRSEDTAVYYCARKLFTTMDVTDNAMDYWGQGTTVTVSSGGGGSGGGGSEVQLVESGGGLVQPGGSLRLSCAASGFTFSNYGVTWVRQAPGKGLEWVSMIWADGSTHYASSVKGRFTISRDNSKNTLYLQMNSLRAEDTAVYYCAREWQHGPVAYWGQGTLVTVSS
VL: DIQMTQSPSSLSASVGDRVTITCRASQDISQYLNWYQQKPGKAPKLLIYYTSRLQSGVPSRFSGSGSGTDFTLTISSLQPEDFATYFCQQGNTWPPTFGQGTKLEIKRGGSGGGGSGDIQMTQSPSSLSASVGDRVTITCRASQLVSSAVAWYQQKPGKAPKLLIYWASARHTGVPSRFSGSGSGTDFTLTISSLQPEDFATYYCQQHYKTPFTFGQGTKLEIKR
- N-Terminal VD huTNFα Neutralization Assay IC50: 16 pM

B12: DVD3108 (bispecific antibody, IgG1)
VH: EVQLVQSGAEVKKPGASVKVSCKASGYTFTTYGVSWVRQAPGQGLEWMGEIYPGNYNTYYNEKFRGRVTMTTDTSTSTAYMELRSLRSDDTAVYYCARWRTSYFSDYGYFDYWGQGTTVTVSSGGGGSGGGGSEVQLVQSGAEVKKPGASVKVSCKASGYTFANYGIIWVRQAPGQGLEWMGWINTYTGKPTYAQKFQGRVTMTTDTSTSTAYMELSSLRSEDTAVYYCARKLFTTMDVTDNAMDYWGQGTTVTVSS
VL: DVVMTQSPLSLPVTLGQPASISCRSSQSLVHSHGNTYLHWYQQRPGQSPRLLIYTVSNRFSGVPDRFSGSGSGTDFTLKISRVEAEDVGVYYCSQSTHVPYTFGGGTKVEIKRGGSGGGGSGDIQMTQSPSSLSASVGDRVTITCRASQDISQYLNWYQQKPGKAPKLLIYYTSRLQSGVPSRFSGSGSGTDFTLTISSLQPEDFATYFCQQGNTWPPTFGQGTKLEIKR
- C-Terminal VD huTNFα Neutralization Assay IC50: 183 pM

B13: DVD3118 (bispecific antibody, IgG1)
VH: B12 VH with A163N, T235N, M237V, D238A
VL: B12 VL with S152E, Q153N, W216Q
- C-Terminal VD huTNFα Neutralization Assay IC50: 65 pM

From patent publication US20140271457A1 (AbbVie / Abbott, published 2014)
